{
  "source": "patent EP4671273A1",
  "about": "(Anaveon AG, dated 2025)",
  "data": [
    {"target": "T1, human IL-21 receptor (IL-21R) on cells (human, UniProt Q9HBE5 20-538; P31785 23-369)", "T1 sequence (Q9HBE5 20-538, chain 1 of 2)": "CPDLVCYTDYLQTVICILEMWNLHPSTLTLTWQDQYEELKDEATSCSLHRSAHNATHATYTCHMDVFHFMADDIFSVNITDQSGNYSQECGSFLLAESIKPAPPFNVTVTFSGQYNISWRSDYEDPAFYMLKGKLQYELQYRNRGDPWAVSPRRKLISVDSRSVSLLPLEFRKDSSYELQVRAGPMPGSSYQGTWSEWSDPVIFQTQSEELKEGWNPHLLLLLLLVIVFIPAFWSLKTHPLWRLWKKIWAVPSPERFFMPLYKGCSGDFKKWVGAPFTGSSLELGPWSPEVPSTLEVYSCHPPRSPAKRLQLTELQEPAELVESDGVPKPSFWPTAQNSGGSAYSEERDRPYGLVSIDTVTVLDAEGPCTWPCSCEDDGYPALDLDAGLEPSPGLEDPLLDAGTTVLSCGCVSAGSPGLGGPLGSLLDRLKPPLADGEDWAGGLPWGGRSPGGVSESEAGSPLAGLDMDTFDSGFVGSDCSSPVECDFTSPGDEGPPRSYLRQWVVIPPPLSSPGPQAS", "T1 sequence (P31785 23-369, chain 2 of 2)": "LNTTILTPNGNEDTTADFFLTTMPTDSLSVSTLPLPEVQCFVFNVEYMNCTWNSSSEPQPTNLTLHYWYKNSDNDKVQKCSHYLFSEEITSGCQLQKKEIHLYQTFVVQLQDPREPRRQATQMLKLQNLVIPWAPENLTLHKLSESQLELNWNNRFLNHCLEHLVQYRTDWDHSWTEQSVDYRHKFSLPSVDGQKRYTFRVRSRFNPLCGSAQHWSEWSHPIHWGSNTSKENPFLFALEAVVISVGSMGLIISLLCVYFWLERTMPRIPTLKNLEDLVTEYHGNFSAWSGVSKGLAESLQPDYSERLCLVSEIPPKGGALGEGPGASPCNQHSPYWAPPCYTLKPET", "test": "cell-based or functional assay", "values": [
      {"binder": "EXX354 (bispecific antibody, human IgG1, kappa, lambda, L234A L235A) heavy 1: EVQLLESGGGLVQPGGSLRLSCAASGFTFSINAMTWVRQAPGKGLEWVSTISGSGFSTYYADSLKGRFTISRDNSKNTLYLQMNSLRAEDTAVYYCAKEVYGDYWGQGTLVTVSSASTKGPSVFPLAPSSKSTSGGTAALGCLVKDYFPEPVTVSWNSGALTSGVHTFPAVLQSSGLYSLSSVVTVPSSSLGTQTYICNVNHKPSNTKVDKRVEPKSCDKTHTCPPCPAPEAAGGPSVFLFPPKPKDTLMISRTPEVTCVVVDVSHEDPEVKFNWYVDGVEVHNAKTKPREEQYNSTYRVVSVLTVLHQDWLNGKEYKCKVSNKALAAPIEKTISKAKGQPREPQVCTLPPSREEMTKNQVSLSCAVKGFYPSDIAVEWESNGQPENNYKTTPPVLDSDGSFFLVSKLTVDKSRWQQGNVFSCSVMHEALHNHYTQKSLSLSPGK light 1: not shown heavy 2: not shown light 2: DIQMTQSPSSVSASVGDRVTITCRASQGISSWLAWYQHKPGKAPKLLIYVASSLQSGVPSRFSGSGSGTDFTLTISSLQPEDFATYYCQQANSAPLTFGGGTKVEIKRTVAAPSVFIFPPSDEQLKSGTASVVCLLNNFYPREAKVQWKVDNALQSGNSQESVTEQDSKDSTYSLSSTLTLSKADYEKHKVYACEVTHQGLSSPVTKSFNRGEC", "EC50B, pSTAT3+ Jurkat PD-1 cells, PD-1 blocked": "0.28 nM", "EC50NB, pSTAT3+ Jurkat PD-1 cells": "39 pM"},
      {"binder": "JAK529 (bispecific antibody, human IgG1, kappa, lambda, L234A L235A) heavy 1: EVQLLESGGGLVQPGGSLRLSCAASGFTFSINAMTWVRQAPGKGLEWVSTISGSGFSTYYADSLKGRFTISRDNSKNTLYLQMNSLRAEDTAVYYCAKEVYGDYWGQGTLVTVSSASTKGPSVFPLAPSSKSTSGGTAALGCLVKDYFPEPVTVSWNSGALTSGVHTFPAVLQSSGLYSLSSVVTVPSSSLGTQTYICNVNHKPSNTKVDKRVEPKSCDKTHTCPPCPAPEAAGGPSVFLFPPKPKDTLMISRTPEVTCVVVDVSHEDPEVKFNWYVDGVEVHNAKTKPREEQYNSTYRVVSVLTVLHQDWLNGKEYKCKVSNKALAAPIEKTISKAKGQPREPQVCTLPPSREEMTKNQVSLSCAVKGFYPSDIAVEWESNGQPENNYKTTPPVLDSDGSFFLVSKLTVDKSRWQQGNVFSCSVMHEALHNHYTQKSLSLSPGK light 1: not shown heavy 2: not shown light 2: DIQMTQSPSSVSASVGDRVTITCRASQGISSWLAWYQHKPGKAPKLLIYVASSLQSGVPSRFSGSGSGTDFTLTISSLQPEDFATYYCQQANSAPLTFGGGTKVEIKRTVAAPSVFIFPPSDEQLKSGTASVVCLLNNFYPREAKVQWKVDNALQSGNSQESVTEQDSKDSTYSLSSTLTLSKADYEKHKVYACEVTHQGLSSPVTKSFNRGEC", "EC50B, pSTAT3+ Jurkat PD-1 cells, PD-1 blocked": "0.44 nM", "EC50NB, pSTAT3+ Jurkat PD-1 cells": "27 pM"},
      {"binder": "ZBA121 (bispecific antibody, human IgG1, kappa, lambda, L234A L235A) heavy 1: EVQLLESGGGLVQPGGSLRLSCAASGFTFSINAMTWVRQAPGKGLEWVSTISGSGFSTYYADSLKGRFTISRDNSKNTLYLQMNSLRAEDTAVYYCAKEVYGDYWGQGTLVTVSSASTKGPSVFPLAPSSKSTSGGTAALGCLVKDYFPEPVTVSWNSGALTSGVHTFPAVLQSSGLYSLSSVVTVPSSSLGTQTYICNVNHKPSNTKVDKRVEPKSCDKTHTCPPCPAPEAAGGPSVFLFPPKPKDTLMISRTPEVTCVVVDVSHEDPEVKFNWYVDGVEVHNAKTKPREEQYNSTYRVVSVLTVLHQDWLNGKEYKCKVSNKALAAPIEKTISKAKGQPREPQVCTLPPSREEMTKNQVSLSCAVKGFYPSDIAVEWESNGQPENNYKTTPPVLDSDGSFFLVSKLTVDKSRWQQGNVFSCSVMHEALHNHYTQKSLSLSPGK light 1: not shown heavy 2: not shown light 2: DIQMTQSPSSVSASVGDRVTITCRASQGISSWLAWYQHKPGKAPKLLIYVASSLQSGVPSRFSGSGSGTDFTLTISSLQPEDFATYYCQQANSFPLTFGGGTKVEIKRTVAAPSVFIFPPSDEQLKSGTASVVCLLNNFYPREAKVQWKVDNALQSGNSQESVTEQDSKDSTYSLSSTLTLSKADYEKHKVYACEVTHQGLSSPVTKSFNRGEC", "EC50B, pSTAT3+ Jurkat PD-1 cells, PD-1 blocked": "103 nM", "EC50NB, pSTAT3+ Jurkat PD-1 cells": "0.86 nM"},
      {"binder": "OUQ507 (bispecific antibody, human IgG1, kappa, lambda, L234A L235A) heavy 1: EVQLLESGGGLVQPGGSLRLSCAASGFTFSINAMTWVRQAPGKGLEWVSTISGSGFSTYYADSLKGRFTISRDNSKNTLYLQMNSLRAEDTAVYYCAKEVYGDYWGQGTLVTVSSASTKGPSVFPLAPSSKSTSGGTAALGCLVKDYFPEPVTVSWNSGALTSGVHTFPAVLQSSGLYSLSSVVTVPSSSLGTQTYICNVNHKPSNTKVDKRVEPKSCDKTHTCPPCPAPEAAGGPSVFLFPPKPKDTLMISRTPEVTCVVVDVSHEDPEVKFNWYVDGVEVHNAKTKPREEQYNSTYRVVSVLTVLHQDWLNGKEYKCKVSNKALAAPIEKTISKAKGQPREPQVCTLPPSREEMTKNQVSLSCAVKGFYPSDIAVEWESNGQPENNYKTTPPVLDSDGSFFLVSKLTVDKSRWQQGNVFSCSVMHEALHNHYTQKSLSLSPGK light 1: not shown heavy 2: not shown light 2: DIQMTQSPSSVSASVGDRVTITCRASQGISSWLAWYQHKPGKAPKLLIYVASSLQSGVPSRFSGSGSGTDFTLTISSLQPEDFATYYCQQANSAPLTFGGGTKVEIKRTVAAPSVFIFPPSDEQLKSGTASVVCLLNNFYPREAKVQWKVDNALQSGNSQESVTEQDSKDSTYSLSSTLTLSKADYEKHKVYACEVTHQGLSSPVTKSFNRGEC", "EC50B, pSTAT3+ Jurkat PD-1 cells, PD-1 blocked": "0.42 nM", "EC50NB, pSTAT3+ Jurkat PD-1 cells": "24 pM"},
      {"binder": "CMQ332 (bispecific antibody, human IgG1, kappa, lambda, L234A L235A) heavy 1: EVQLLESGGGLVQPGGSLRLSCAASGFTFSINAMTWVRQAPGKGLEWVSTISGSGFSTYYADSLKGRFTISRDNSKNTLYLQMNSLRAEDTAVYYCAKEVYGDYWGQGTLVTVSSASTKGPSVFPLAPSSKSTSGGTAALGCLVKDYFPEPVTVSWNSGALTSGVHTFPAVLQSSGLYSLSSVVTVPSSSLGTQTYICNVNHKPSNTKVDKRVEPKSCDKTHTCPPCPAPEAAGGPSVFLFPPKPKDTLMISRTPEVTCVVVDVSHEDPEVKFNWYVDGVEVHNAKTKPREEQYNSTYRVVSVLTVLHQDWLNGKEYKCKVSNKALAAPIEKTISKAKGQPREPQVCTLPPSREEMTKNQVSLSCAVKGFYPSDIAVEWESNGQPENNYKTTPPVLDSDGSFFLVSKLTVDKSRWQQGNVFSCSVMHEALHNHYTQKSLSLSPGK light 1: not shown heavy 2: not shown light 2: DIQMTQSPSSVSASVGDRVTITCRASQGISSWLAWYQHKPGKAPKLLIYVASSLQSGVPSRFSGSGSGTDFTLTISSLQPEDFATYYCQQANSAPLTFGGGTKVEIKRTVAAPSVFIFPPSDEQLKSGTASVVCLLNNFYPREAKVQWKVDNALQSGNSQESVTEQDSKDSTYSLSSTLTLSKADYEKHKVYACEVTHQGLSSPVTKSFNRGEC", "EC50B, pSTAT3+ Jurkat PD-1 cells, PD-1 blocked": "34 pM", "EC50NB, pSTAT3+ Jurkat PD-1 cells": "12 pM"}
    ]},
    {"target": "T1, human IL-21 receptor (IL-21R) on cells", "test": "cell-based or functional assay", "remark": "another data set of the same source", "units": {"EC50NB, pSTAT3+ Jurkat PD-1 cells": "pM"}, "values": [
      {"binder": "VYL308 (bispecific antibody, human IgG1, kappa, lambda, L234A L235A) heavy 1: EVQLLESGGGLVQPGGSLRLSCAASGFTFSINAMTWVRQAPGKGLEWVSTISGSGFSTYYADSLKGRFTISRDNSKNTLYLQMNSLRAEDTAVYYCAKEVYGDYWGQGTLVTVSSASTKGPSVFPLAPSSKSTSGGTAALGCLVKDYFPEPVTVSWNSGALTSGVHTFPAVLQSSGLYSLSSVVTVPSSSLGTQTYICNVNHKPSNTKVDKRVEPKSCDKTHTCPPCPAPEAAGGPSVFLFPPKPKDTLMISRTPEVTCVVVDVSHEDPEVKFNWYVDGVEVHNAKTKPREEQYNSTYRVVSVLTVLHQDWLNGKEYKCKVSNKALAAPIEKTISKAKGQPREPQVCTLPPSREEMTKNQVSLSCAVKGFYPSDIAVEWESNGQPENNYKTTPPVLDSDGSFFLVSKLTVDKSRWQQGNVFSCSVMHEALHNHYTQKSLSLSPGK light 1: not shown heavy 2: QVQLQESGPGLVKPSETLSLTCTVSGGSISSDYWGWIRQPPGKGLEWIGYISYRGSTNYNPSLKSRVTISVDTSRNQFSLKLSSVTAADTAVYYCARSAGVTDFDAWGQGTLVTVSSASTKGPSVFPLAPSSKSTSGGTAALGCLVKDYFPEPVTVSWNSGALTSGVHTFPAVLQSSGLYSLSSVVTVPSSSLGTQTYICNVNHKPSNTKVDKRVEPKSCDKTHTCPPCPAPEAAGGPSVFLFPPKPKDTLMISRTPEVTCVVVDVSHEDPEVKFNWYVDGVEVHNAKTKPREEQYNSTYRVVSVLTVLHQDWLNGKEYKCKVSNKALAAPIEKTISKAKGQPREPQVYTLPPCREEMTKNQVSLWCLVKGFYPSDIAVEWESNGQPENNYKTTPPVLDSDGSFFLYSKLTVDKSRWQQGNVFSCSVMHEALHNHYTQKSLSLSPGK light 2: not shown", "EC50B, pSTAT3+ Jurkat PD-1 cells, PD-1 blocked": "56 pM", "EC50NB, pSTAT3+ Jurkat PD-1 cells": 0.7},
      {"binder": "ULS916 (bispecific antibody, human IgG1, kappa, lambda, L234A L235A) heavy 1: EVQLLESGGGLVQPGGSLRLSCAASGFTFSINAMTWVRQAPGKGLEWVSTISGSGFSTYYADSLKGRFTISRDNSKNTLYLQMNSLRAEDTAVYYCAKEVYGDYWGQGTLVTVSSASTKGPSVFPLAPSSKSTSGGTAALGCLVKDYFPEPVTVSWNSGALTSGVHTFPAVLQSSGLYSLSSVVTVPSSSLGTQTYICNVNHKPSNTKVDKRVEPKSCDKTHTCPPCPAPEAAGGPSVFLFPPKPKDTLMISRTPEVTCVVVDVSHEDPEVKFNWYVDGVEVHNAKTKPREEQYNSTYRVVSVLTVLHQDWLNGKEYKCKVSNKALAAPIEKTISKAKGQPREPQVCTLPPSREEMTKNQVSLSCAVKGFYPSDIAVEWESNGQPENNYKTTPPVLDSDGSFFLVSKLTVDKSRWQQGNVFSCSVMHEALHNHYTQKSLSLSPGK light 1: not shown heavy 2: QVQLQESGPGLVKPSETLSLTCTVSGGSISSDYWGWIRQPPGKGLEWIGYISYRGSTNYNPSLKSRVTISVDTSRNQFSLKLSSVTAADTAVYYCARSAGVTDFDAWGQGTLVTVSSASTKGPSVFPLAPSSKSTSGGTAALGCLVKDYFPEPVTVSWNSGALTSGVHTFPAVLQSSGLYSLSSVVTVPSSSLGTQTYICNVNHKPSNTKVDKRVEPKSCDKTHTCPPCPAPEAAGGPSVFLFPPKPKDTLMISRTPEVTCVVVDVSHEDPEVKFNWYVDGVEVHNAKTKPREEQYNSTYRVVSVLTVLHQDWLNGKEYKCKVSNKALAAPIEKTISKAKGQPREPQVYTLPPCREEMTKNQVSLWCLVKGFYPSDIAVEWESNGQPENNYKTTPPVLDSDGSFFLYSKLTVDKSRWQQGNVFSCSVMHEALHNHYTQKSLSLSPGK light 2: not shown", "EC50B, pSTAT3+ Jurkat PD-1 cells, PD-1 blocked": "0.873 nM", "EC50NB, pSTAT3+ Jurkat PD-1 cells": 6}
    ]}
  ]
}
